Results published in patent US20220089722A1 (NANTONG YICHEN BIOPHARMA, published 2022).

Columns and labels:
EGFR on F98-EGFR cells [1] = molecular target: T1, EGFR on F98-EGFR cells (UniProt P00533 25-1210, limits assumed); assay: flow cytometry on F98-EGFR cells
T1 construct: whole, on cells
Experimental: F98-EGFR cells (a DMEM containing 10% FBS, 200 μg/ml G418) were cultured. 2×10⁵ cells were washed by precooled PBS for 3 times, and blocked by 2% FBS (soluble to PBS). IgFD-8, IgFD-9, IgFD-10, IgFD-11, IgFD-18, IgFD-19, IgFD-25, IgFD-26 or IgFD-31 (aEGFR expressed in a laboratory as a control) was added and incubated for 2 h at 4° C. (cells were gently mixed during incubation), unbounded antibodies were washed by 2% FBS (soluble to PBS), and then the remaining cells were incubated by FITC anti-human IgGFc(KPL, Inc., MD) for 1 h at 4° C., and washed by 2% FBS (soluble to PBS) for flow cytometry analysis. As shown in FIG. 7 and Table 4, the anti-CD3/anti-EGFR heterodimers in different forms of fusion could bind to EGFR on F98-EGFR cells, and there was no significant difference in the binding capacity of different heterodimers to F98-EGFR.

EGFR on F98-EGFR cells [2] = molecular target: T1, EGFR on F98-EGFR cells; assay: cell-based or functional assay
[3] = molecular target: T2, CD3 on T cells (Jurkat T cells; PBMC-T cells); assay: flow cytometry on activated T cells from PBMCs (PBMC-T)
T2 construct: whole, on cells; the target is inferred from the anti-CD3 arm of the constructs
T2 sequence (P07766 23-207): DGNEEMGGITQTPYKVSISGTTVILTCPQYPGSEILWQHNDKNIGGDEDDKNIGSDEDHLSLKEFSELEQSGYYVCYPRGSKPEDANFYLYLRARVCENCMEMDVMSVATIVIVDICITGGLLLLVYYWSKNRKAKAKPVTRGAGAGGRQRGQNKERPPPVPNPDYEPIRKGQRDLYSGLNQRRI
Experimental: Peripheral blood of healthy volunteers was collected, and Ficoll-Hypaque(GE Healthcare) was used to separate peripheral blood monouclear cells (PBMCs) via gradient centrifugation. The purified PBMCs were resuspended in RPMI 1640/10% FBS complete medium. PBMCs were incubated with immobilized anti-CD3 (Clone OKT3, eBiosciences), and 2 μg mL anti-CD28 (Clone CloneCD28.2, eBiosciences) at 37° C. for 48 h. The activated T cells were then expanded for 10d with 20 U/ml IL2(R&D Systems). 2×10⁵ cells were washed by precooled PBS for 3 times, and blocked by 2% FBS (in PBS), and then incubated with IgFD-8, IgFD-18 or IgFD-19 at different concentrations (25 nM, 7.5 nM, 2.5 nM, 0.75 nM or 0.25 nM) for 1 h at 4° C. (cells were gently mixed during incubation). Unbounded antibodies were washed by 2% FBS (in PBS), and the cells were incubated with FITC anti-human IgGFc (KPL, Inc., MD) for 1 h at 4° C. (cells were gently mixed during incubation). The cells were subjected for flow cytometry analysis after the unbounded antibodies were washed by 2% FBS (in PBS).

B1: IgFD-8 (bispecific antibody, human IgG1, kappa)
chain 1: EVQLVESGGGLVQPGGSLRLSCAASGFTFNTYAMNWVRQAPGKGLEWVARIRSKYNNYATYYADSVKDRFTISRDDSKNTLYLQMNSLRAEDTAVYYCVRHGNFGNSYVSWFAYWGQGTLVTVSSASTKGPSVFPLAPSSKSTSGGTAALGCLVKDYFPEPVTVSWNSGALTSGVHTFPAVLQSSGLYSLSSVVTVPSSSLGTQTYICNVNHKPSNTKVDKKVEPKSCDKTHTCPPCPAPPVAGPSVFLFPPKPKDTLMISRTPEVTCVVVDVSHEDPEVKFNWYVDGVEVHNAKTKPREEQYNSTYRVVSVLTVLHQDWLNGKEYKCKVSNKGLPSSIEKTISKAKGQPREPQVYTLPPSRDELTKNQVSLTCLVKGFYPSDIAVEWESNGQPENNYKTTPPVLDSDGSFFLYSKLTVDKSRWQQGNVFSCSVMHEALHNHYTQKSLSLSPGK
chain 2: QAVVTQEPSLTVSPGGTVTLTCRSSTGAVTTSNYANWVQQKPDHLFRGLIGGTNKRAPGTPARFSGSLLGDKAALTISGAQPEDEAEYYCALWYSNLWVFGGGTKLTVLKRTVAAPSVFIFPPSDEQLKSGTASVVCLLNNFYPREAKVQWKVDNALQSGNSQESVTEQDSKDSTYSLSSTLTLSKADYEKHKVYACEVTHQGLSSPVTKSFNRGECDKTHTCPPCPAPPVAGPSVFLFPPKPKDTLMISRTPEVTCVVVDVSHEDPEVKFNWYVDGVEVHNAKTKPREEQYNSTYRVVSVLTVLHQDWLNGKEYKCKVSNKGLPSSIEKTISKAKGQPREPQVYTLPPSRDELTKNQVSLTCLVKGFYPSDIAVEWESNGQPENNYKTTPPVLDSDGSFFLYSKLTVDKSRWQQGNVFSCSVMHEALHNHYTQKSLSLSPGKGGSGGSGGGGSGGGGSDIQMTQSPSSLSASVGDRVTITCQASQDISNYLNWYQQKPGKAPKLLIYDASNLETGVPSRFSGSGSGTDFTFTISSLQPEDIATYFCQHFDHLPLAFGGGTKVEIKGGGGSGGGGSGGGGSQVQLQESGPGLVKPSETLSLTCTVSGGSVSSGDYYWTWIRQSPGKGLEWIGHIYYSGNTNYNPSLKSRLTISIDTSKTQFSLKLSSVTAADTAIYYCVRDRVTGAFDIWGQGTMVTVSS
- Kd (EGFR on F98-EGFR cells [1]): 3.12 nM
- Promotion for the specific killing effect of PBMCs on target cells by heterodimers (EC50, pM); F98-EGFR cells, LDH assay (EGFR on F98-EGFR cells [2]): 766 pM
- Kd [3]: 3.74 nM
